Source: US20120114755A1, “METHODS AND MATERIALS FOR TISSUE REPAIR” (MAYO FOUNDATION FOR MEDICAL EDUCATION AND RESEARCH, priority 2009, published 2012)
Ends that are not written are not given here.

B1: GDF-5: Recombinant human GDF-5 (MBL, Woburn, Mass.) (protein, UniProt P43026 382-501, looked up)
Growth/differentiation factor …: APLATRQGKRPSKNLKARCSRKALHVNFKDMGWDDWIIAPLEYEAFHCEGLCEFPLRSHLEPTNHAVIQTLMNSMDPESTPPTCCVPTRLSPISILFIDSANNVVYKQYEDMVVESCGCR

Columns and labels:
FDP tendons = assay: In vitro tissue culture tendon healing model, gel patch with BMSC and/or Substance P: biomechanical testing; format: cell-based, dogs; conditions: zone III tendon groups, Substance P 10^−9, 2 weeks and 4 weeks
Description: Mixed-breed dogs being euthanized for other IACUC approved studies were used to harvest bone marrow from which bone marrow stromal cells (BMSCs) were cultured. The FDP tendons were harvested from dogs also being euthanized for other IACUC approved studies and these tendons were transected at similar levels, repaired with a single suture and incubated in tissue culture medium. Six repair groups was studied: (1) tendons ends opposed with two single loop sutures of 6/0 nylon (Ethicon, Somerville N.J.); (2) tendons repaired as in group 1 with the interposition of a collagen gel scaffold to the repair site (positive control group); (3) tendons repaired as in group 1 with the interposition of a BMSC-seeded collagen gel scaffold to the repair site; (4) tendons repaired as in group 1, with the interposition of a BMSC-seeded collagen gel scaffold to the repair site and addition of Substance P; (5) tendons repaired as in group 1, with the interposition of a BMSC-seeded collagen gel scaffold to the repair site and addition of GDF-5; and (6) tendons repaired as in group 1, with the interposition of a BMSC-seeded collagen gel scaffold to the repair site and addition of SP and GDF-5. […]
Confluent plates of BMSC were washed twice with sterile PBS and then trypsinized. The cells were counted with a hemocytometer and centrifuged to remove the media, forming a cell pellet with a known number of cells. […]

BMSCs [1] = assay: MTT cell proliferation assay of BMSCs with rhGDF-5; format: cell-based, dogs; conditions: day 10 of cell culture, 100 ng/mL rhGDF-5
Description: (§1) Immediately after euthanasia, 8.0 mL of bone marrow was aspirated from each tibia using a 15 mL syringe containing 2.0 mL of heparin solution. Heparin was removed and the bone marrow cells from one dog were divided into three 100-mm dishes in 10 mL of standard medium, which consists of minimal essential medium (MEM) with Earle's salts (Gibco, Grand Island, N.Y.), 10% fetal calf serum and 1% antibiotics (Antibiotic-Antimycotic, Gibco). The bone marrow cells were incubated at 37° C. with 5% CO2 and 95% air at 100% humidity. After 3 days, the medium containing floating cells was removed and new medium was added to the remaining adherent cells. These adherent cells were considered to be BMSCs. The medium was changed every 3 days. After the BMSCs formed colonies, they were treated with EDTA-trypsin to produce a cell suspension and centrifuged at 1500 rpm for 5 minutes to remove the EDTA-trypsin solution. The concentrated cell suspension was gathered in one tube and seeded in new dishes. Recombinant human GDF-5 (MBL, Woburn, Mass.) was added to the culture medium at a concentration of 100 ng/mL and culture continued for and additional 10 days.
Quantification of cell proliferation and viability was measured using Cell Proliferation Kit I (Roche, Basel, Switzerland). […] The absorbance was measured using Spectra Max Plus (Molecular Devises, Sunnyvale, Calif.). […]

BMSCs [2] = assay: Quantitative RT-PCR of BMSCs cultured with GDF-5; format: cell-based, canine
Description: as §1
Total RNA was extracted from culture cells using RNeasy Micro kit (Qiagen, Valencia, Calif.), according to the manufacturer's recommendations. The RNA concentration was determined using a NanoDrop (Thermo scientific, Waltham, Mass.). RNA was reverse transcribed into single-stranded cDNA with an anchored-oligo(dT) primer using Transcriptor First Strand cDNA Synthesis Kit (Roche). The reverse transcriptase was inactivated by heating to 85° C. for 5 minutes. The expression of tenomodulin (a marker of tenocyte differentiation), collagen type I and collagen type III was quantified with LightCycler 480 SYBR Green I Master kit (Roche) in a LightCycler 480 instrument (Roche). HPRT served as the reference gene. Five samples were measured in each group.

| Molecule | maximum force compared with cell only control (FDP tendons) | proliferation of BMSCs (MTT) compared with BMSCs without GDF5 stimulation (BMSCs [1]) | collagen type I mRNA expression, treated vs untreated cells (BMSCs [2]; 100 ng/mL) | collagen type III mRNA expression, treated vs untreated cells (BMSCs [2]; 100 ng/mL) | expression of tenomodulin mRNA compared with untreated cells (BMSCs [2]; day 10, 100 ng/mL) |
| --- | --- | --- | --- | --- | --- |
| Substance P: neuropeptide, substance P (Sigma) (RPKPQQFFGLM-NH2; ends and bridges not checked; UniProt P20366 58-68, looked up) | significantly higher | – | – | – | – |
| B1 | – | significantly increased | no significant difference | no significant difference | increased |
